Measurements published in IntAct's records for PubMed 23357641.

B1: Nephronectin (Mus musculus), Q91V88 (parent)
chain: MAVLLAAVLASSLYLQVAADFDGRWPRQIVSSIGLCRYGGRIDCCWGWARQSWGQCQPVCQPQCKHGECVGPNKCKCHPGFAGKTCNQDLNECGLKPRPCKHRCMNTFGSYKCYCLNGYMLLPDGSCSSALSCSMANCQYGCDVVKGQVRCQCPSPGLQLAPDGRTCVDIDECATGRVSCPRFRQCVNTFGSYICKCHTGFDLMYIGGKYQCHDIDECSLGQHQCSSYARCYNIHGSYKCQCRDGYEGDGLNCVYIPKVMIEPSGPIHMPERNGTISKGDGGHANRIPDAGSTRWPLKTPYIPPVITNRPTSKPTTRPTPNPTPQPTPPPPPPLPTEPRTTPLPPTPERPSTRPTTIAPATSTTTRVITVDNRIQTDPQKPRGDVFIPRQPTNDLFEIFEIERGVSADEEVKDDPGILIHSCNFDHGLCGWIREKDSDLHWETARDPAGGQYLTVSAAKAPGGKAARLVLRLGHLMHSGDLCLSFRHKVTGLHSGTLQVFVRKHGTHGAALWGRNGGHGWRQTQITLRGADVKSVIFKGEKRRGHTGEIGLDDVSLKRGRC

Variants of: B1
Details: with agrin_human AGRN

| Variant | effect of a mutation on the interaction |
| --- | --- |
| MAVLLAAVLASSLYLQVAADFDGRWPRQIVSSIGLCRYGGRIDCCWGWARQSWGQCQPVCQPQCKHGECVGPNKCKCHPGFAGKTCNQDLNECGLKPRPCKHRCMNTFGSYKCYCLNGYMLLPDGSCSSALSCSMANCQYGCDVVKGQVRCQCPSPGLQLAPDGRTCVDIDECATGRVSCPRFRQCVNTFGSYICKCHTGFDLMYIGGKYQCHDIDECSLGQHQCSSYARCYNIHGSYKCQCRDGYEGDGLNCVYIPKVMIEPSGPIHMPERNGTISKGDGGHANRIPDAGSTRWPLKTPYIPPVITNRPTSKPTTRPTPNPTPQPTPPPPPPLPTEPRTTPLPPTPERPSTRPTTIAPATSTTTRVITVDNRIQTDPQKPRGDVFIPRQPTNDLFEIFEIERGVSADEEVKDDPGILIHSCNFDHGLCGWIREKDSDLHWETAADPAGGQYLTVSAAKAPGGKAARLVLRLGHLMHSGDLCLSFRHKVTGLHSGTLQVFVRKHGTHGAALWGRNGGHGWRQTQITLRGADVKSVIFKGEKRRGHTGEIGLDDVSLKRGRC [R445A] | decreasing interaction |
| MAVLLAAVLASSLYLQVAADFDGRWPRQIVSSIGLCRYGGRIDCCWGWARQSWGQCQPVCQPQCKHGECVGPNKCKCHPGFAGKTCNQDLNECGLKPRPCKHRCMNTFGSYKCYCLNGYMLLPDGSCSSALSCSMANCQYGCDVVKGQVRCQCPSPGLQLAPDGRTCVDIDECATGRVSCPRFRQCVNTFGSYICKCHTGFDLMYIGGKYQCHDIDECSLGQHQCSSYARCYNIHGSYKCQCRDGYEGDGLNCVYIPKVMIEPSGPIHMPERNGTISKGDGGHANRIPDAGSTRWPLKTPYIPPVITNRPTSKPTTRPTPNPTPQPTPPPPPPLPTEPRTTPLPPTPERPSTRPTTIAPATSTTTRVITVDNRIQTDPQKPRGDVFIPRQPTNDLFEIFEIERGVSADEEVKDDPGILIHSCNFDHGLCGWIREKDSDLHWETARDPAGGQYLTVSAAAAPGGAAARLVLRLGHLMHSGDLCLSFRHKVTGLHSGTLQVFVRKHGTHGAALWGRNGGHGWRQTQITLRGADVKSVIFKGEKRRGHTGEIGLDDVSLKRGRC [K459A;K464A] | decreasing interaction |
| MAVLLAAVLASSLYLQVAADFDGRWPRQIVSSIGLCRYGGRIDCCWGWARQSWGQCQPVCQPQCKHGECVGPNKCKCHPGFAGKTCNQDLNECGLKPRPCKHRCMNTFGSYKCYCLNGYMLLPDGSCSSALSCSMANCQYGCDVVKGQVRCQCPSPGLQLAPDGRTCVDIDECATGRVSCPRFRQCVNTFGSYICKCHTGFDLMYIGGKYQCHDIDECSLGQHQCSSYARCYNIHGSYKCQCRDGYEGDGLNCVYIPKVMIEPSGPIHMPERNGTISKGDGGHANRIPDAGSTRWPLKTPYIPPVITNRPTSKPTTRPTPNPTPQPTPPPPPPLPTEPRTTPLPPTPERPSTRPTTIAPATSTTTRVITVDNRIQTDPQKPRGDVFIPRQPTNDLFEIFEIERGVSADEEVKDDPGILIHSCNFDHGLCGWIREKDSDLHWETARDPAGGQYLTVSAAKAPGGKAARLVLALGHLMHSGDLCLSFRHKVTGLHSGTLQVFVRKHGTHGAALWGRNGGHGWRQTQITLRGADVKSVIFKGEKRRGHTGEIGLDDVSLKRGRC [R471A] | decreasing interaction |
| MAVLLAAVLASSLYLQVAADFDGRWPRQIVSSIGLCRYGGRIDCCWGWARQSWGQCQPVCQPQCKHGECVGPNKCKCHPGFAGKTCNQDLNECGLKPRPCKHRCMNTFGSYKCYCLNGYMLLPDGSCSSALSCSMANCQYGCDVVKGQVRCQCPSPGLQLAPDGRTCVDIDECATGRVSCPRFRQCVNTFGSYICKCHTGFDLMYIGGKYQCHDIDECSLGQHQCSSYARCYNIHGSYKCQCRDGYEGDGLNCVYIPKVMIEPSGPIHMPERNGTISKGDGGHANRIPDAGSTRWPLKTPYIPPVITNRPTSKPTTRPTPNPTPQPTPPPPPPLPTEPRTTPLPPTPERPSTRPTTIAPATSTTTRVITVDNRIQTDPQKPRGDVFIPRQPTNDLFEIFEIERGVSADEEVKDDPGILIHSCNFDHGLCGWIREKDSDLHWETARDPAGGQYLTVSAAKAPGGKAARLVLRLGHLMHSGDLCLSFRHKVTGLHSGTLQVFVAAAGTHGAALWGRNGGHGWRQTQITLRGADVKSVIFKGEKRRGHTGEIGLDDVSLKRGRC [R502A;K503A;H504A] | decreasing interaction |
| MAVLLAAVLASSLYLQVAADFDGRWPRQIVSSIGLCRYGGRIDCCWGWARQSWGQCQPVCQPQCKHGECVGPNKCKCHPGFAGKTCNQDLNECGLKPRPCKHRCMNTFGSYKCYCLNGYMLLPDGSCSSALSCSMANCQYGCDVVKGQVRCQCPSPGLQLAPDGRTCVDIDECATGRVSCPRFRQCVNTFGSYICKCHTGFDLMYIGGKYQCHDIDECSLGQHQCSSYARCYNIHGSYKCQCRDGYEGDGLNCVYIPKVMIEPSGPIHMPERNGTISKGDGGHANRIPDAGSTRWPLKTPYIPPVITNRPTSKPTTRPTPNPTPQPTPPPPPPLPTEPRTTPLPPTPERPSTRPTTIAPATSTTTRVITVDNRIQTDPQKPRGDVFIPRQPTNDLFEIFEIERGVSADEEVKDDPGILIHSCNFDHGLCGWIREKDSDLHWETARDPAGGQYLTVSAAKAPGGKAARLVLRLGHLMHSGDLCLSFRHKVTGLHSGTLQVFVRKHGTHGAALWGRNGGHGWRQTQITLAGADVKSVIFKGEKRRGHTGEIGLDDVSLKRGRC [R528A] | decreasing interaction |
| MAVLLAAVLASSLYLQVAADFDGRWPRQIVSSIGLCRYGGRIDCCWGWARQSWGQCQPVCQPQCKHGECVGPNKCKCHPGFAGKTCNQDLNECGLKPRPCKHRCMNTFGSYKCYCLNGYMLLPDGSCSSALSCSMANCQYGCDVVKGQVRCQCPSPGLQLAPDGRTCVDIDECATGRVSCPRFRQCVNTFGSYICKCHTGFDLMYIGGKYQCHDIDECSLGQHQCSSYARCYNIHGSYKCQCRDGYEGDGLNCVYIPKVMIEPSGPIHMPERNGTISKGDGGHANRIPDAGSTRWPLKTPYIPPVITNRPTSKPTTRPTPNPTPQPTPPPPPPLPTEPRTTPLPPTPERPSTRPTTIAPATSTTTRVITVDNRIQTDPQKPRGDVFIPRQPTNDLFEIFEIERGVSADEEVKDDPGILIHSCNFDHGLCGWIREKDSDLHWETARDPAGGQYLTVSAAKAPGGKAARLVLRLGHLMHSGDLCLSFRHKVTGLHSGTLQVFVRKHGTHGAALWGRNGGHGWRQTQITLRGADVKSVIFKGEAAAGHTGEIGLDDVSLKRGRC [K541A;R542A;R543A] | decreasing interaction |
| MAVLLAAVLASSLYLQVAADFDGRWPRQIVSSIGLCRYGGRIDCCWGWARQSWGQCQPVCQPQCKHGECVGPNKCKCHPGFAGKTCNQDLNECGLKPRPCKHRCMNTFGSYKCYCLNGYMLLPDGSCSSALSCSMANCQYGCDVVKGQVRCQCPSPGLQLAPDGRTCVDIDECATGRVSCPRFRQCVNTFGSYICKCHTGFDLMYIGGKYQCHDIDECSLGQHQCSSYARCYNIHGSYKCQCRDGYEGDGLNCVYIPKVMIEPSGPIHMPERNGTISKGDGGHANRIPDAGSTRWPLKTPYIPPVITNRPTSKPTTRPTPNPTPQPTPPPPPPLPTEPRTTPLPPTPERPSTRPTTIAPATSTTTRVITVDNRIQTDPQKPRGDVFIPRQPTNDLFEIFEIERGVSADEEVKDDPGILIHSCNFDHGLCGWIREKDSDLHWETARDPAGGQYLTVSAAKAPGGKAARLVLRLGHLMHSGDLCLSFRHKVTGLHSGTLQVFVRKHGTHGAALWGRNGGHGWRQTQITLRGADVKSVIFKGEKRRGHTGEIGLDDVSLAAAAC [K557A;R558A;G559A;R560A] | decreasing interaction |
